Results: the RNAGym collection of RNA variant scans (doi:10.1073/pnas.2313332121)

B1: TPR t1 (parent)
chain: GACCAAUCUGCCCUCAGAGCUCGAGAACAUCUUCGGAUGCAGAGGAGGCAGGCUUCGGUGGCGCGAUAGCGCCAACGUCCUCAACCUCCAAUGCAUCCCACCACAUGAUGAUGCCUGAAGAGCCUUGGUUUUUUG

Variants of: B1
Experiment: polymerase ribozyme fitness, log enrichment relative to wild type (log ratio); higher = more active; in vitro selection for triplet polymerase activity
Summary of the method: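 One round of in vitro selection, in triplicate, was applied to PCR-built, transcribed mutant libraries of each subunit of a heterodimeric triplet polymerase ribozyme. The steps were annealing with a biotinylated primer, partner subunit and triplets, incubation frozen at −7 °C, gel excision of extended constructs, streptavidin-bead capture and RT-PCR. Fitness is the logarithm, base 2, of genotype enrichment over wild-type enrichment from inverse-variance-weighted replicate averages of Illumina-sequenced inputs and outputs, keeping genotypes with ≥10 input reads and ≥1 read per output.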

In order of rising “polymerase ribozyme fitness (log ratio)” value:
1. U21C C64A C99G U112G  -8.45
2. C20A C28G C94U A111G  -7.69
3. C20A G61A C80G U109A G113U U133G  -7.36
4. U21A A27G G51U U116C  -7.29
5. C22A C31G A50C C70G A111C  -7.1
6. C20G G71A C72A C80U G110C G117C  -6.92
7. C20U U33G U59A G107U G110C  -6.84
8. C22A A43G A46U C72U G113C U116G  -6.81
9. C22G A41U G63U U78C C99G  -6.66
10. C20A C28A G47C C97U G110C  -6.66
11. C20G G23U U32A C98G C123G U131G  -6.64
12. C20A U32G G35C G93A G113A U125A  -6.57
13. G19U C31U C56G C124U  -6.42
14. C20U A43G C53A G110U G120U  -6.4
15. C22G C40G G65U G69A C99A C101A C123U  -6.38
16. C20G C94U C114A G122U U125G  -6.15
17. C22G A26C G42C A84U  -6.04
18. C22A C82A C89A A111G  -6.04
19. C20G G48A G52A  -6
20. C22A A29G A50G U116G U129C  -5.9
21. G19U G39U G93A U106C G120U  -5.8
22. C22A C49U C56A U78C G117U  -5.8
23. C22A G45U C62U C73U  -5.77
24. U21G C88G U96A C102U  -5.77
25. C20A C22A C62G U81G U96G A121U  -5.74
26. C22A G48U G63A C94G G120A  -5.73
27. C22A G57C C102A  -5.72
28. C20A C72A C101A  -5.69
29. C22G A41C G44C G69U C79G A90C  -5.69
30. C22G A29C C40A G120C  -5.67
31. C20U A83G C102A  -5.64
32. C20U C97G  -5.61
33. U21C G71U C86G G117A  -5.6
34. C20U A26G G71U U109A  -5.57
35. C22G A68G  -5.5
36. C22A G60C  -5.44
37. C20A A41G C53A G71U U78G  -5.43
38. C20A G35U  -5.42
39. C20G G45A U130C  -5.42
40. U21A G63A C88A A91C  -5.41
41. C22A A74U C123A U125G  -5.38
42. C20A A27U A43U  -5.37
43. C22A G60C A90G C123U  -5.34
44. C20U G60A G61A C99U  -5.32
45. C22A G45A G63C C88U  -5.31
46. C20U G58A C73A G93C G117U  -5.31
47. C22A G57C G69U C76A  -5.3
48. C22G A41U G44U  -5.29
49. C22A C86G C114U  -5.23
50. C20U C34U  -5.22
51. C20A G63A A74C U96A  -5.16
52. C20G G117U  -5.16
53. C20G C56U C123A  -5.13
54. C20G G93A  -5.03
55. C20A G48A C49G G61A U87G A90C  -5.02
56. C20G A46U  -4.99
57. C20A C76A U106A  -4.96
58. U21A C88A G110A  -4.92
59. C22A C85U  -4.92
60. C22A G48U C56U  -4.88
61. U21C U55C G63U A105U  -4.84
62. C20U C40A G44C C49G G71A C115A A119G  -4.83
63. C20U U38G C62G G120C  -4.8
64. U21C A27U C123U  -4.79
65. C20U G77A U87A G110A  -4.79
66. C20G C82A  -4.78
67. C22A A75U U78A U116G  -4.77
68. C20G G63U C82G G113C G128U  -4.75
69. C22A G110A  -4.72
70. C22A C86G  -4.67
71. U21A A50U C73U C76G C89A  -4.66
72. C20A C40G  -4.64
73. C20A A27C C62U  -4.63
74. C20A C49A G63U  -4.62
75. C20U A43G G63A  -4.59
76. C20G C62A  -4.56
77. G19U U87A U106C A118U  -4.56
78. G19U U21A G47C A90C G113C  -4.49
79. C22G C73G U133G  -4.48
80. C20U A43C C82U C98U  -4.43
81. C20G C56G A84U  -4.43
82. U21G C22A A27U  -4.41
83. U21A U59G U81G C82G C115U  -4.27
84. C20G C73U A83C  -4.27
85. C20G G120U  -4.25
86. C20A G44U  -4.1
87. C22G C34G C102U C123A  -4.03
88. C20A C104A  -3.99
89. C20U C22A  -3.94
90. U21A A43C C73G U78C  -3.93
91. U21C G42A C88U C89A  -3.87
92. C20A C85G  -3.75
93. C22G C76G  -3.73
94. C20A C49G U106C  -3.68
95. C20A C79A  -3.62
96. U21G C73G A83G  -3.58
97. C20G U78C  -3.43
98. U21A C53G U54G U87A U133A  -3.43
99. C20G C123G U132G  -3.39
100. G19U G45C A91C A111C  -3.35
101. C20U G71C A75G C82U U87G A90U A105G G113U  -3.34
102. C20A U96G  -3.33
103. C20G G36A A121C  -3.32
104. C20A G57C  -3.31
105. G19U C82A  -3.28
106. C20U G57A U78C  -3.25
107. C20A A27U A95G U131A  -3.17
108. C22G C72U C114A  -3.16
109. C20G A46U C114U  -3.16
110. U21A A43U G61A C73U A90G  -3.13
111. C20G A37G A118U  -3.12
112. C22G A90G  -3.06
113. C20A G42U G120A  -3.01
114. C20A C72U  -2.98
115. C20A G52C  -2.97
116. U21A A43C  -2.9
117. C20A C53A U59A  -2.85
118. U21G G36C C72G  -2.78
119. C22G C72A C88U  -2.7
120. C20U G52A G60A  -2.6
121. C20A C53U  -2.46
122. U21G G93U A111G U112G  -2.45
123. C20U G52C C72U  -2.41
124. C20A C40U U132A  -2.39
125. U21A G128C  -2.29
126. C20A G45A  -2.28
127. C20U C56A G71U A118U G120U  -2.27
128. U21C C56A C70U C82A  -2.18
129. U21G U38C  -2.11
130. C20U U106C  -2.1
131. C20U U54A C73G U133A  -1.99
132. C20U G42A C124G U126C G135U  -1.98
133. G19U C124U  -1.97
134. C20U G135U  -1.97
135. C20A C82A U87G  -1.92
136. C20A G120A  -1.89
137. C20U A100U G120U  -1.89
138. C20U C70U A95G  -1.86
139. U21G C94U  -1.8
140. C20U G61C C114U  -1.73
141. U21C U38A C73A C123A  -1.55
142. C20U C56A  -1.52
143. U21C G69U C88U C94G C124U  -1.5
144. C20A C72A A118U  -1.46
145. U21C G61A C114U U125A  -1.45
146. U21C G44A A119G U125G  -1.38
147. U21A A29G  -1.38
148. C20U A50G  -1.33
149. U21A G39C G77A  -1.28
150. C20A A50G G52A C124A  -1.12
151. C20U U112G  -1.11
152. U21G  -0.965
153. U21A C49G G61U U130C  -0.83
154. U21A C62U A119U  -0.733
155. U21C G63A  -0.609
156. C20G C73A C101U G113U  -0.556
157. U21C U112A G122C C123U  -0.556
158. U21A A46G G128C G135C  -0.459
159. U21A  -0.29
160. U21C  -0.0619
161. U21A C49A C56A A121U  0.0625
162. U21C A37U  0.0886
163. C20U G60A C124U  0.188
164. U21G C123G  0.364
165. U21G G42U U112A  0.673
166. G19U U21G C49A G71A C114A  0.71
167. U21C A111C  0.739
